Data as given in the Human Domainome abundance scans (Beltran et al. 2025).
± gives the uncertainty stated by the source.

B1: Apoptosis-associated speck-like protein containing a CARD, residues 114 to 194; numbered along this chain, Q9ULZ3 (parent)
chain: FIDQHRAALIARVTNVEWLLDALYGKVLTDEQYQAVRAEPTNPSKMRKLFSFTPAWNWTCKDLLLQALRESQSYLVEDLER

Variants of: B1
Assay: abundance fitness (aPCA) (normalised: wild type 0, dead -1); higher = more abundant; growth selection in yeast, the domain comes from the species named
Conditions: Homo sapiens

Variant	abundance fitness
FIDQHRAALIARVTNVEWLLDALYGKQLTDEQYQAVRAEPTNPSKMRKLFSFTPAWNWTCKDLLLQALRESQSYLVEDLER	-0.613 ± 0.15
FIDQHRAALIARVTNVEWLLDALYGKWLTDEQYQAVRAEPTNPSKMRKLFSFTPAWNWTCKDLLLQALRESQSYLVEDLER	-0.734 ± 0.13
FIDQHRAALIARVTNVEWLLDALYGKMLTDEQYQAVRAEPTNPSKMRKLFSFTPAWNWTCKDLLLQALRESQSYLVEDLER	-0.722 ± 0.18
FIDQHRAALIARVTNVEWLLDALYGKTLTDEQYQAVRAEPTNPSKMRKLFSFTPAWNWTCKDLLLQALRESQSYLVEDLER	-0.675 ± 0.1
FIDQHRAALIARVTNVEWLLDALYGKILTDEQYQAVRAEPTNPSKMRKLFSFTPAWNWTCKDLLLQALRESQSYLVEDLER	-0.392 ± 0.12
FIDQHRAALIARVTNVEWLLDALYGKFLTDEQYQAVRAEPTNPSKMRKLFSFTPAWNWTCKDLLLQALRESQSYLVEDLER	-0.413 ± 0.1
FIDQHRAALIARVTNVEWLLDALYGKLLTDEQYQAVRAEPTNPSKMRKLFSFTPAWNWTCKDLLLQALRESQSYLVEDLER	-0.65 ± 0.071
FIDQHRAALIARVTNVEWLLDALYGKELTDEQYQAVRAEPTNPSKMRKLFSFTPAWNWTCKDLLLQALRESQSYLVEDLER	-0.731 ± 0.18
FIDQHRAALIARVTNVEWLLDALYGKRLTDEQYQAVRAEPTNPSKMRKLFSFTPAWNWTCKDLLLQALRESQSYLVEDLER	-0.909 ± 0.096
FIDQHRAALIARVTNVEWLLDALYGKDLTDEQYQAVRAEPTNPSKMRKLFSFTPAWNWTCKDLLLQALRESQSYLVEDLER	-0.904 ± 0.14
FIDQHRAALIARVTNVEWLLDALYGKALTDEQYQAVRAEPTNPSKMRKLFSFTPAWNWTCKDLLLQALRESQSYLVEDLER	-0.21 ± 0.049
FIDQHRAALIARVTNVEWLLDALYGKCLTDEQYQAVRAEPTNPSKMRKLFSFTPAWNWTCKDLLLQALRESQSYLVEDLER	0.002 ± 0.082
FIDQHRAALIARVTNVEWLLDALYGKHLTDEQYQAVRAEPTNPSKMRKLFSFTPAWNWTCKDLLLQALRESQSYLVEDLER	-0.764 ± 0.26
FIDQHRAALIARVTNVEWLLDALYGKGLTDEQYQAVRAEPTNPSKMRKLFSFTPAWNWTCKDLLLQALRESQSYLVEDLER	-0.419 ± 0.048
FIDQHRAALIARVTNVEWLLDALYGKSLTDEQYQAVRAEPTNPSKMRKLFSFTPAWNWTCKDLLLQALRESQSYLVEDLER	-0.583 ± 0.074
FIDQHRAALIARVTNVEWLLDALYGKKLTDEQYQAVRAEPTNPSKMRKLFSFTPAWNWTCKDLLLQALRESQSYLVEDLER	-1.09 ± 0.3
FIDQHRAALIARVTNVEWLLDALYGRVLTDEQYQAVRAEPTNPSKMRKLFSFTPAWNWTCKDLLLQALRESQSYLVEDLER	-0.178 ± 0.038
FIDQHRAALIARVTNVEWLLDALYGDVLTDEQYQAVRAEPTNPSKMRKLFSFTPAWNWTCKDLLLQALRESQSYLVEDLER	-0.483 ± 0.11
FIDQHRAALIARVTNVEWLLDALYGVVLTDEQYQAVRAEPTNPSKMRKLFSFTPAWNWTCKDLLLQALRESQSYLVEDLER	-0.106 ± 0.051
FIDQHRAALIARVTNVEWLLDALYGMVLTDEQYQAVRAEPTNPSKMRKLFSFTPAWNWTCKDLLLQALRESQSYLVEDLER	-0.563 ± 0.11
FIDQHRAALIARVTNVEWLLDALYGLVLTDEQYQAVRAEPTNPSKMRKLFSFTPAWNWTCKDLLLQALRESQSYLVEDLER	-0.438 ± 0.052
FIDQHRAALIARVTNVEWLLDALYGPVLTDEQYQAVRAEPTNPSKMRKLFSFTPAWNWTCKDLLLQALRESQSYLVEDLER	-0.369 ± 0.065
FIDQHRAALIARVTNVEWLLDALYGAVLTDEQYQAVRAEPTNPSKMRKLFSFTPAWNWTCKDLLLQALRESQSYLVEDLER	-0.371 ± 0.078

Variant	abundance fitness
FIDQHRAALIARVTNVEWLLDALYGYVLTDEQYQAVRAEPTNPSKMRKLFSFTPAWNWTCKDLLLQALRESQSYLVEDLER	-0.658 ± 0.3
FIDQHRAALIARVTNVEWLLDALYGFVLTDEQYQAVRAEPTNPSKMRKLFSFTPAWNWTCKDLLLQALRESQSYLVEDLER	-0.47 ± 0.3
FIDQHRAALIARVTNVEWLLDALYGNVLTDEQYQAVRAEPTNPSKMRKLFSFTPAWNWTCKDLLLQALRESQSYLVEDLER	-0.314 ± 0.16
FIDQHRAALIARVTNVEWLLDALYGWVLTDEQYQAVRAEPTNPSKMRKLFSFTPAWNWTCKDLLLQALRESQSYLVEDLER	-0.481 ± 0.044
FIDQHRAALIARVTNVEWLLDALYGSVLTDEQYQAVRAEPTNPSKMRKLFSFTPAWNWTCKDLLLQALRESQSYLVEDLER	-0.081 ± 0.051
FIDQHRAALIARVTNVEWLLDALYGQVLTDEQYQAVRAEPTNPSKMRKLFSFTPAWNWTCKDLLLQALRESQSYLVEDLER	-0.249 ± 0.07
FIDQHRAALIARVTNVEWLLDALYGCVLTDEQYQAVRAEPTNPSKMRKLFSFTPAWNWTCKDLLLQALRESQSYLVEDLER	-0.262 ± 0.094
FIDQHRAALIARVTNVEWLLDALYGHVLTDEQYQAVRAEPTNPSKMRKLFSFTPAWNWTCKDLLLQALRESQSYLVEDLER	-0.422 ± 0.13
FIDQHRAALIARVTNVEWLLDALYGIVLTDEQYQAVRAEPTNPSKMRKLFSFTPAWNWTCKDLLLQALRESQSYLVEDLER	-0.094 ± 0.11
FIDQHRAALIARVTNVEWLLDALYGEVLTDEQYQAVRAEPTNPSKMRKLFSFTPAWNWTCKDLLLQALRESQSYLVEDLER	-0.323 ± 0.085
FIDQHRAALIARVTNVEWLLDALYGGVLTDEQYQAVRAEPTNPSKMRKLFSFTPAWNWTCKDLLLQALRESQSYLVEDLER	-0.513 ± 0.062
FIDQHRAALIARVTNVEWLLDALYGTVLTDEQYQAVRAEPTNPSKMRKLFSFTPAWNWTCKDLLLQALRESQSYLVEDLER	0.014 ± 0.073
FIDQHRAALIARVTNVEWLLDALYTKVLTDEQYQAVRAEPTNPSKMRKLFSFTPAWNWTCKDLLLQALRESQSYLVEDLER	-0.81 ± 0.16
FIDQHRAALIARVTNVEWLLDALYSKVLTDEQYQAVRAEPTNPSKMRKLFSFTPAWNWTCKDLLLQALRESQSYLVEDLER	-0.701 ± 0.084
FIDQHRAALIARVTNVEWLLDALYVKVLTDEQYQAVRAEPTNPSKMRKLFSFTPAWNWTCKDLLLQALRESQSYLVEDLER	-0.779 ± 0.097
FIDQHRAALIARVTNVEWLLDALYLKVLTDEQYQAVRAEPTNPSKMRKLFSFTPAWNWTCKDLLLQALRESQSYLVEDLER	-0.45 ± 0.058
FIDQHRAALIARVTNVEWLLDALYKKVLTDEQYQAVRAEPTNPSKMRKLFSFTPAWNWTCKDLLLQALRESQSYLVEDLER	0.025 ± 0.14
FIDQHRAALIARVTNVEWLLDALYHKVLTDEQYQAVRAEPTNPSKMRKLFSFTPAWNWTCKDLLLQALRESQSYLVEDLER	-0.213 ± 0.12
FIDQHRAALIARVTNVEWLLDALYDKVLTDEQYQAVRAEPTNPSKMRKLFSFTPAWNWTCKDLLLQALRESQSYLVEDLER	-0.255 ± 0.11
FIDQHRAALIARVTNVEWLLDALYYKVLTDEQYQAVRAEPTNPSKMRKLFSFTPAWNWTCKDLLLQALRESQSYLVEDLER	-0.55 ± 0.3
FIDQHRAALIARVTNVEWLLDALYFKVLTDEQYQAVRAEPTNPSKMRKLFSFTPAWNWTCKDLLLQALRESQSYLVEDLER	-0.931 ± 0.22
FIDQHRAALIARVTNVEWLLDALYAKVLTDEQYQAVRAEPTNPSKMRKLFSFTPAWNWTCKDLLLQALRESQSYLVEDLER	-0.43 ± 0.061
FIDQHRAALIARVTNVEWLLDALYRKVLTDEQYQAVRAEPTNPSKMRKLFSFTPAWNWTCKDLLLQALRESQSYLVEDLER	-0.445 ± 0.049

Variant	abundance fitness
FIDQHRAALIARVTNVEWLLDALYIKVLTDEQYQAVRAEPTNPSKMRKLFSFTPAWNWTCKDLLLQALRESQSYLVEDLER	-0.543 ± 0.22
FIDQHRAALIARVTNVEWLLDALYQKVLTDEQYQAVRAEPTNPSKMRKLFSFTPAWNWTCKDLLLQALRESQSYLVEDLER	-0.41 ± 0.1
FIDQHRAALIARVTNVEWLLDALYPKVLTDEQYQAVRAEPTNPSKMRKLFSFTPAWNWTCKDLLLQALRESQSYLVEDLER	0.191 ± 0.053
FIDQHRAALIARVTNVEWLLDALYCKVLTDEQYQAVRAEPTNPSKMRKLFSFTPAWNWTCKDLLLQALRESQSYLVEDLER	-0.582 ± 0.12
FIDQHRAALIARVTNVEWLLDALYWKVLTDEQYQAVRAEPTNPSKMRKLFSFTPAWNWTCKDLLLQALRESQSYLVEDLER	-0.325 ± 0.077
FIDQHRAALIARVTNVEWLLDALRGKVLTDEQYQAVRAEPTNPSKMRKLFSFTPAWNWTCKDLLLQALRESQSYLVEDLER	0.109 ± 0.046
FIDQHRAALIARVTNVEWLLDALTGKVLTDEQYQAVRAEPTNPSKMRKLFSFTPAWNWTCKDLLLQALRESQSYLVEDLER	-0.654 ± 0.088
FIDQHRAALIARVTNVEWLLDALSGKVLTDEQYQAVRAEPTNPSKMRKLFSFTPAWNWTCKDLLLQALRESQSYLVEDLER	-0.319 ± 0.056
FIDQHRAALIARVTNVEWLLDALWGKVLTDEQYQAVRAEPTNPSKMRKLFSFTPAWNWTCKDLLLQALRESQSYLVEDLER	-0.301 ± 0.071
FIDQHRAALIARVTNVEWLLDALVGKVLTDEQYQAVRAEPTNPSKMRKLFSFTPAWNWTCKDLLLQALRESQSYLVEDLER	-0.054 ± 0.047
FIDQHRAALIARVTNVEWLLDALYGKVITDEQYQAVRAEPTNPSKMRKLFSFTPAWNWTCKDLLLQALRESQSYLVEDLER	-0.119 ± 0.068
FIDQHRAALIARVTNVEWLLDALYGKVPTDEQYQAVRAEPTNPSKMRKLFSFTPAWNWTCKDLLLQALRESQSYLVEDLER	-0.878 ± 0.14
FIDQHRAALIARVTNVEWLLDALYGKVRTDEQYQAVRAEPTNPSKMRKLFSFTPAWNWTCKDLLLQALRESQSYLVEDLER	-0.871 ± 0.084
FIDQHRAALIARVTNVEWLLDALYGKVATDEQYQAVRAEPTNPSKMRKLFSFTPAWNWTCKDLLLQALRESQSYLVEDLER	-0.732 ± 0.088
FIDQHRAALIARVTNVEWLLDALYGKVMTDEQYQAVRAEPTNPSKMRKLFSFTPAWNWTCKDLLLQALRESQSYLVEDLER	-0.767 ± 0.15
FIDQHRAALIARVTNVEWLLDALYGKVSTDEQYQAVRAEPTNPSKMRKLFSFTPAWNWTCKDLLLQALRESQSYLVEDLER	-0.812 ± 0.091
FIDQHRAALIARVTNVEWLLDALYGKVFTDEQYQAVRAEPTNPSKMRKLFSFTPAWNWTCKDLLLQALRESQSYLVEDLER	-0.896 ± 0.23
FIDQHRAALIARVTNVEWLLDALYGKVKTDEQYQAVRAEPTNPSKMRKLFSFTPAWNWTCKDLLLQALRESQSYLVEDLER	-0.807 ± 0.24
FIDQHRAALIARVTNVEWLLDALYGKVDTDEQYQAVRAEPTNPSKMRKLFSFTPAWNWTCKDLLLQALRESQSYLVEDLER	-0.935 ± 0.21
FIDQHRAALIARVTNVEWLLDALYGKVQTDEQYQAVRAEPTNPSKMRKLFSFTPAWNWTCKDLLLQALRESQSYLVEDLER	-0.931 ± 0.23
FIDQHRAALIARVTNVEWLLDALYGKVETDEQYQAVRAEPTNPSKMRKLFSFTPAWNWTCKDLLLQALRESQSYLVEDLER	-0.817 ± 0.12
FIDQHRAALIARVTNVEWLLDALYGKVNTDEQYQAVRAEPTNPSKMRKLFSFTPAWNWTCKDLLLQALRESQSYLVEDLER	-0.805 ± 0.31
